A value given as a limit tells only on which side of the number the result lay.

The target of experiment [1] is T1, sortilin on the surface of U-251 and PC-3 cells (human (endogenous in U-251 and PC-3), UniProt Q99523 78-831).
T1 sequence (looked up): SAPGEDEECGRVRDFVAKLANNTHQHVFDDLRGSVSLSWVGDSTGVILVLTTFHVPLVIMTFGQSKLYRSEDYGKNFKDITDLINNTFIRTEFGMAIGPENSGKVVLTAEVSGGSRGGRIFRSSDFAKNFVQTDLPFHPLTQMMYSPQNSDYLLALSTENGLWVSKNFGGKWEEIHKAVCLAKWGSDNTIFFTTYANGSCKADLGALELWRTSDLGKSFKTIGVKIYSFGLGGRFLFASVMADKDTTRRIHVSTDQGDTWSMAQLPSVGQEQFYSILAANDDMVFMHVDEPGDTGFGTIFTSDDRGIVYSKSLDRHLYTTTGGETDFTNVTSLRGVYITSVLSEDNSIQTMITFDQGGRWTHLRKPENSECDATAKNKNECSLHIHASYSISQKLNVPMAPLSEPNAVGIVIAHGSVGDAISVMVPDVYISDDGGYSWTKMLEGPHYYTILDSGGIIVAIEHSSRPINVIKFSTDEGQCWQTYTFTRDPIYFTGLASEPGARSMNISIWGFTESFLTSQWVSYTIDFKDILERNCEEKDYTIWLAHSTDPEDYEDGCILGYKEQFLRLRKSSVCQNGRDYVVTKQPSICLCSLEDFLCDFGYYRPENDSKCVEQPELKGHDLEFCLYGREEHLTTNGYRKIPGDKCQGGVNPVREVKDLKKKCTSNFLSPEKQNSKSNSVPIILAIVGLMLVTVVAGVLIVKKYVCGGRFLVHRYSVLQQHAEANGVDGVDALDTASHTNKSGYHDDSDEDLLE
The experiment can be described thus: cell-based or functional assay.

The target of experiment [2] is T2, human sortilin (R&D Systems, 3154-ST) (human, UniProt Q99523 78-755).
T2 construct: sortilin, human, recombinant protein bought from R&D Systems (3154-ST); also called hSort; SORT1; source: bought: R&D Systems (3154-ST)
T2 sequence (looked up): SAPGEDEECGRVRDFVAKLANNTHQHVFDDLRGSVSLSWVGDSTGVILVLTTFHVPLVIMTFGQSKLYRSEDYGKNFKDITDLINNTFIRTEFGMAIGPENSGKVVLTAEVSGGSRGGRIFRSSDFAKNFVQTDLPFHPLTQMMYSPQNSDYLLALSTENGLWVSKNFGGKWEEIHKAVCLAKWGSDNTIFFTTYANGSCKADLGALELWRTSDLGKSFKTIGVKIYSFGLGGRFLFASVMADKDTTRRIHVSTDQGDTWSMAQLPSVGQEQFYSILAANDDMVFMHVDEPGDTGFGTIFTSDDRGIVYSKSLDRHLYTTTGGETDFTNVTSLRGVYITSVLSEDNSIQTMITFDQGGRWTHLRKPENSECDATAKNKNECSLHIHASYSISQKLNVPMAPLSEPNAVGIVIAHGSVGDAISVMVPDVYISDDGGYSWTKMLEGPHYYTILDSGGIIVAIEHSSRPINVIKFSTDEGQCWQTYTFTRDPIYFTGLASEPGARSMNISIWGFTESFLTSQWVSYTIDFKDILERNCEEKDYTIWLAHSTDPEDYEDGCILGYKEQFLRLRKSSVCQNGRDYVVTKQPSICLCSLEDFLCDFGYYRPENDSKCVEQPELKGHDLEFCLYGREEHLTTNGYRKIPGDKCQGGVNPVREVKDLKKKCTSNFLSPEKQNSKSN
Briefly: SPR; Biacore 8K, affinity determination of second-generation constructs; 30-100 RU of ABD035-containing constructs captured on immobilised HSA (CM5); 1-200 nM human sortilin injected 180 s at 30 µl/min, 25°C, PBST; 60 min dissociation; 1:1 Langmuir fit; apparent constants; n=3 technical replicates. The note with it: both partners purified. On the technique in general: SPR reads the build-up and loss of mass on a sensor chip optically.

B1: ABD-PGRNC21* (His6-ABD035-PGRNC21*) (peptide, UniProt P28799 573-593, looked up)
chain: LRREAPRWDAPLRDPGLRQLL
notes: progranulin (PGRN), human, the 21 C-terminal residues L573-L593 (PGRNC21) with A588G (PGRNC21*); numbers count from the start codon; also called the PGRN C-terminus; PGRNC alone; source: E. coli BL21 Star, purified (IMAC, HisPur Cobalt); not shown: ABD035, N-terminal, kept
One may read the koff as a measure of how fast the partners let go of each other. For orientation: kon means the second-order rate constant of association. In the case of B1, the “PGRN clearance assay: fold increase of extracellular PGRN (ELISA) against untreated U-251 cells after 72 h, at the highest tested concentration (500 nM); no plateau, no EC50” value in experiment [1] is at most 1.44 fold. In experiment [2], the Kd came out at 15.9 nM, the koff is 0.00337 s⁻¹ and the on-rate constant (kon) is 212000 M⁻¹ s⁻¹.

The values above are taken from paper PMC11342335, “An anti-sortilin affibody-peptide fusion inhibits sortilin-mediated progranulin degradation” (Frontiers in Immunology, 2024).
